Paper doi:10.1101/2022.11.10.515920 (bioRxiv, 2022)

Biological target: the molecule itself
Assay: SEC

B1: glucose oxidase expressed in BY-2 lysate (enzyme)
chain: LPHYIRSNGIEASLLTDPKDVSGRTVDYIIAGGGLTGLTTAARLTENPNISVLVIESGSYESDRGPIIEDLNAYGDIFGSSVDHAYETVELATNNQTALIRSGNGLGGSTLVNGGTWTRPHKAQVDSWETVFGNEGWNWDNVAAYSLQAERARAPNAKQIAAGHYFNASCHGVNGTVHAGPRDTGDDYSPIVKALMSAVEDRGVPTKKDFGCGDPHGVSMFPNTLHEDQVRSDAAREWLLPNYQRPNLQVLTGQYVGKVLLSQNGTTPRAVGVEFGTHKGNTHNVYAKHEVLLAAGSAVSPTILEYSGIGMKSILEPLGIDTVVDLPVGLNLQDQTTATVRSRITSAGAGQGQAAWFATFNETFGDYSEKAHELLNTKLEQWAEEAVARGGFHNTTALLIQYENYRDWIVNHNVAYSELFLDTAGVASFDVWDLLPFTRGYVHILDKDPYLHHFAYDPQYFLNELDLLGQAAATQLARNISNSGAMQTYFAGETIPGDNLAYDADLSAWTEYIPYHFRPNYHGVGTCSMMPKEMGGVVDNAARVYGVQGLRVIDGSIPPTQMSSHVMTVFYAMALKISDAILEDYASMQ
With B1 the “stoichiometry N” value was 2.

B2: glucose oxidase, commercial standard purified from Aspergillus niger (enzyme)
chain: B1 chain
In the case of B2, the “stoichiometry N” value is reported as 2.
